Assay results taken from PMC6088136.

Target: GluA2 AMPAR (expressed in HEK293T) (UniProt P23819)
Test: SPR

UniProt P23819, sequence (P23819 25-883): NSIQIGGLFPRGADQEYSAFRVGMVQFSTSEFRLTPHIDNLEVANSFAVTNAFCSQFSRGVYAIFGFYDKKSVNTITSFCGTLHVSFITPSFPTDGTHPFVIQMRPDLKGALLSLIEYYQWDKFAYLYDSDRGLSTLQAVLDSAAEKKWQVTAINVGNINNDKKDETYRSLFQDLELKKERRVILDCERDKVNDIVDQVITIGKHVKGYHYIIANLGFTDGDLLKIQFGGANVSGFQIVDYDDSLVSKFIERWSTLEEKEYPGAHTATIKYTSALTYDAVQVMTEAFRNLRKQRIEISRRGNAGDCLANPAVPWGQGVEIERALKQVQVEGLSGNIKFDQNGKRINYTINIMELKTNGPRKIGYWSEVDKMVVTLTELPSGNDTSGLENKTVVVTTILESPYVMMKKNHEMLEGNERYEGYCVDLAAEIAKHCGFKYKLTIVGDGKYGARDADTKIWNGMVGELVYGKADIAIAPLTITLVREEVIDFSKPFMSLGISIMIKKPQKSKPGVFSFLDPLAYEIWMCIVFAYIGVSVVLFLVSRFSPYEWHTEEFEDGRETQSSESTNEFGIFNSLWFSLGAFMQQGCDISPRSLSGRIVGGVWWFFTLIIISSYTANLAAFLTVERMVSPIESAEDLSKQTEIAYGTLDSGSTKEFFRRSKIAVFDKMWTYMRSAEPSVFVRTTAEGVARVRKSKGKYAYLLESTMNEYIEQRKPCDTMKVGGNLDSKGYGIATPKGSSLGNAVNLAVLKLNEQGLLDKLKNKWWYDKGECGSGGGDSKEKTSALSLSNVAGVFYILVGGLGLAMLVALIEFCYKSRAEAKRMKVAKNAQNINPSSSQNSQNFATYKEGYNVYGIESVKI

Q: “Noelin1-3 (untagged, expressed in HEK293T) (natural protein)” was tested. Which Kd did it give?
A: Its Kd is 1 nM.

Q: And the koff?
A: Its koff is 0.002 s⁻¹.
